Assay results as given in publication PMC2919415, “Integrating Ion Mobility Mass Spectrometry with Molecular Modelling to Determine the Architecture of Multiprotein Complexes” (PLoS ONE, 2010).
Several values for one entry are separate records, joined by “and”; a condition that tells them apart may be missing. Equal values may be shown once.

Key:
[1] = molecular target: the molecule itself; assay: native MS; nano-electrospray ion mobility-MS (Synapt HDMS) of γ alone; 0.1 M NH4OAc pH 6.9
[2] = molecular target: the molecule itself; assay: native MS; nano-electrospray ion mobility-MS (Synapt HDMS) of γδ′ subcomplexes; γ and δ′ mixed 3:2, then exchanged into 0.1 M NH4OAc
[3] = molecular target: T1, δ′ subunit of the γ complex (clamp loader), E. coli (E. coli, UniProt P28631 1-334); assay: as above; conditions: both partners purified
T1 construct: δ′ subunit of the E. coli clamp loader (γ complex); source: overexpressed in E. coli and purified as described [45-48]

stoichiometry N [3]: 2 γ per δ′ and 3 γ per δ′
B1: γ subunit of the γ complex (clamp loader), E. coli (natural protein, UniProt P06710-2 1-431, looked up)
chain: MSYQVLARKWRPQTFADVVGQEHVLTALANGLSLGRIHHAYLFSGTRGVGKTSIARLLAKGLNCETGITATPCGVCDNCREIEQGRFVDLIEIDAASRTKVEDTRDLLDNVQYAPARGRFKVYLIDEVHMLSRHSFNALLKTLEEPPEHVKFLLATTDPQKLPVTILSRCLQFHLKALDVEQIRHQLEHILNEEHIAHEPRALQLLARAAEGSLRDALSLTDQAIASGDGQVSTQAVSAMLGTLDDDQALSLVEAMVEANGERVMALINEAAARGIEWEALLVEMLGLLHRIAMVQLSPAALGNDMAAIELRMRELARTIPPTDIQLYYQTLLIGRKELPYAPDRRMGVEMTLLRALAFHPRMPLPEPEVPRQSFAPVAPTAVMTPTQVPPQPQSAPQQAPTVPLPETTSQVLAARQQLQRVQGATKAKKE
notes: γ subunit of the E. coli clamp loader (γ complex); the legend speaks of the full length γ subunit against the truncated γ of the crystal structure; also called γ2; γ3; source: overexpressed in E. coli and purified as described [45-48]
stoichiometry N [1]: 4
stoichiometry N [2]: 2 and 3
